Data as given in publication PMC4335406.

What was measured:
[1] = biological target: DsLOV, short LOV protein from Dinoroseobacter shibae DFL12T (Dinoroseobacter shibae DFL12T); assay: SEC; analytical size-exclusion chromatography; data not shown; conditions not given
[2] = biological target: DsLOV, short LOV protein from Dinoroseobacter shibae DFL12T (Dinoroseobacter shibae DFL12T); assay: small angle X-ray scattering (SAXS); 7.2 and 14.8 mg/ml DsLOV in 10 mM NaH2PO4, 300 mM NaCl, pH 8.0, 10°C; beamline BM29, ESRF

Question: Which stoichiometry N [1] does the source give for “DsLOV, short LOV protein from Dinoroseobacter shibae DFL12T (natural protein)” here?
Answer: 2

Question: What about the stoichiometry N [2] of the same substance?
Answer: 2
